What was measured:
TGF-β2 [1] = target: T1, TGF-β2 (Homo sapiens, UniProt P61812); assay: Ligand blot analysis of 125I-TGF-β2 binding to PVDF-immobilized proteins; conditions: SDS-PAGE, PVDF membrane, 125I-TGF-β2 20 pM, 2 h at 25° C.
T1 construct: purchased Genzyme (Cambridge, Mass.)
T1 sequence (P61812 303-414 limits assumed): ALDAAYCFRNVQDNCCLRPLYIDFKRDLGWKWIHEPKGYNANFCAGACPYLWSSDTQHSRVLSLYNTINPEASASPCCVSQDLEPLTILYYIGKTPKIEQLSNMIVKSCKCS
Procedure: To block free sulfhydryls, some samples were treated with 5 mM IAM for 2 h at 25° C. Equivalent amounts of each protein ([…]) were subjected to SDS-PAGE on 10% slabs. IAM-treated GST-α2 M-peptide fusion proteins were subjected to SDS-PAGE as well. All samples were electro-transferred to PVDF membranes. The membranes were blocked with 5% milk and 0.1% Tween 20 in PBS for 12 h at 4° C. and then rinsed with 0.1% Tween 20 in PBS (PBS-T). […] Biophys. Res. Commun. […] NGF-β was radioiodinated with Iodogen, to a specific activity of 2-5 μCi/μg, using the method recommended by the manufacturer. […] After washing the membranes with PBS-T, bound radioligands were detected by Phosphorlmager analysis.

TGF-β2 [2] = target: T1, TGF-β2; conditions: read-out: KD for TGF-β2 (either TGF-β isoform); cited from earlier work
TGF-β1 [3] = target: T2, TGF-β1 (Homo sapiens, UniProt P01137); conditions: read-out: KD for TGF-β1 (either TGF-β isoform); cited from earlier work
T2 construct: purchased R&D Systems (Minneapolis, Minn.)

TGF-β1 [4] = target: T2, TGF-β1; assay: Endothelial cell proliferation assay, neutralization of TGF-β1 by fusion proteins; assay type: cell-based
Procedure: (§1) Fetal bovine heart endothelial (FBHE) cells were cultured in DMEM supplemented with 10% FBS, 20 ng/ml acidic fibroblast growth factor, and 80 ng/ml basic fibroblast growth factor and passaged at subconfluence with trypsin-EDTA. To perform proliferation assays, the cells were plated at a density of 2×10^4 /well (24 well plates) in DMEM supplemented with 0.2% FBS. […] The fusion proteins were preincubated with the TGF-β for 15 min prior to addition to the cultures. At the completion of an incubation, the cultures were washed 3 times with serum-free DMEM and then allowed to incubate in DMEM with 0.2% FBS for 30 h. [^3 H]Thymidine was added for an additional 18 h; the cells were then harvested and [^3 H]thymidine incorporation was quantitated.

RAW 264.7 cells = assay: NO synthesis (nitrite in conditioned medium) by RAW 264.7 cells; assay type: cell-based, murine; conditions: 250 nM, SFM, 24 h
Procedure: NO synthesis by RAW 264.7 cells was quantitated by measuring the stable NO oxidation product, nitrite, in conditioned medium, as previously described (Anal. Biochem. 126, 131-138 (1982)). […] The fusion proteins were purified and detergent-free. After 24 h, conditioned medium (100 μl) was recovered and nitrite was measured. […] Biol, Chem. 270, 21919-21927 (1995)). The α2 M-induced increase in RAW 264.7 cell NO synthesis is inhibited by the NOS inhibitor, N^G -monomethyl-L-arginine.

TGF-β2 [5] = target: T1, TGF-β2; assay: 125I-TGF-β2 binding to immobilized α2M-MA, solution-phase competition; conditions: increasing concentrations (4-250 nM)
Procedure: The wells were washed three times with PBS-T and blocked with PBS-T for 16 h at 4° C. […] In the presence of a fusion protein (FP) which binds TGF-β, the total concentration of TGF-β [βT ] was related to [βF ], at equilibrium, as follows: [βT ]=[βF ](1+[FP]/KI).

TGF-β2 [6] = target: T1, TGF-β2; assay: Binding of 125I-TGF-β2 to FP3 and FP4 in solution as determined by FPLC on Superose-12; conditions: fusion protein 0.5 μM, 125I-TGF-β2 0.5 nM, 30 min 37° C., n=2
Procedure: The flow rate was 0.4 ml/min. […] To calibrate the FPLC, the following proteins were subjected to chromatography on the same column: soybean trypsin inhibitor (Mr~21,500, Ve of 14.1 ml), ovalbumin (Mr~45,000, Ve of 12.9 ml), BSA (Mr~66,000, Ve of 12.1 ml), and BSA dimer (Mr~132,000, Ve of 10.9 ml).

TGF-β2 [7] = target: T1, TGF-β2; assay: Endothelial cell proliferation assay, neutralization of TGF-β2 by fusion proteins; assay type: cell-based
Procedure: as §1

FBHE cells = assay: Endothelial cell proliferation assay, TGF-β alone; assay type: cell-based, bovine; conditions: TGF-β 10 pM, 1 h pulse
Procedure: as §1

B1: FP2: GST-fusion protein with human α2M amino acids 364-613 (protein)
chain: RGNEANYYSNATTDEHGLVQFSINTTNVMGTSLTVRVNYKDRSPCYGYQWVSEEHEEAHHTAYLVFSPSKSFVHLEPMSHELPCGHTQTVQAHYILNGGTLLGLKKLSFYYLIMAKGGIVRTGTHGLLVKQEDMKGHFSISIPVKSDIAPVARLLIYAVLPTGDVIGDSAKYDVENCLANKVDLSFSPSQSLPASHAHLRVTAAPQSVCALRAVDQSVLLMKPDAELSASSVYNLLPEKDLTGFPGPLND
modifications: free sulfhydryls blocked with iodoacetamide (IAM)
For B1, the “125I-TGF-β2 binding, ligand blot” value (TGF-β2 [1]) was “did not bind”.

B2: MUG: monomeric murine homologue of human α2M, purified from plasma of CD-1 female mice (protein)
chain: DSKYMVLVPSQLYTETPEKICLHLYQLNETVTVTASLVSQSGRKNLFDELVLDKDLFQCVSFIIPRLSSSDEEDFLYVDIKGPTHEFSKRKAVLVKNKESVVFVQTDKPVYKPGQSVKFRVVSMDKMLRPLNELLPLAYIEDPKKNRIMQWRDIKTENGLKQMSFSLAAEPIQGPYKIVVHKESGEKEEHSFTVMEFVLPRFNVDLKVPNAMSVNDEVLSVTACGKYTYGKPVPGHVKINVCRETETGCREVNSQLDNNGCSTQEVNITELQSKKRNYEVQLFHVNATVTEEGTGLEFSRSGTTKIERITNKLIFLKADSHFRHGIPFFVKVRLVDIKGDPIPNEKVFIKAQELSYTSATTTDQHGLAEFSIDTTCISGSSLHIKVNHKEEDSCSYFYCMEERHASAKHVAYAVYSLSKSYIYLDTETSSILPCNQIHTVQAHFILKGDLGVLKELIFYYLVMAQGSIIQTGNHTHQVEPGEAPVKGKFALEIPVEFSMVPMAKMLIYTILPDGEVIADSVNFEIEKCLRNKVDLRFSTSQSLPASQTRLQVTASPQSLCGLRAVDQSVLLLKPESELSPSWIYNLPGMQQNKFVPSSRLSEDQEDCILYSSWLAEKHTNLVPHGTEKDVYRYVEDMGLTAFTNLMIKLPIICFDYGMVPISAPRVEFDLAFTPEISWSLRTTLSKRPEEPPRKDPSSNDPLTETIRKYFPETWVWDIVTVNSTGLAEVEMTVPDTITEWKAGALCLSNDTGLGLSSVVPLQAFKPFFVEVSLPYSVVRGEAFMLKATVMNYLPTSMQMSVQLEASPDFTAVPVGDDQDSYCLSANGRHTSSWLVTPKSLGNVNFSVSAEAQQSSEPCGSEVATVPETGRKDTVVKVLIVEPEGIKQEHTFSSLFCASDAEISEKMSLVLPPTVVKDSARAHFSVMGDILSSAIRNTQNLLHMPYGCGEQNMVLFAPNIYVLKYLNETQQLTQKIKTKALGFLRAGYQRELNYKHKDGSYSAFGDQNGEREGNTWLTAFVLKSFAQARAFIFIDESHITHAFTWLSQKQKDNGCFRSSGSLFNNAMKGGVDDEMTLSAYITMALLESSLPATHPVVSKALSCLESSWKTIEQERNASFVYTKALMAYAFALAGNQNKRDEILKSLDEEAIKENNSIHWKRPQKSRKSEHHLYKPQASSAEVEMNAYVVLARLTAQPAPSPEDLTLSMSTIMWLTKQQNSNGGFSSTQDTVVALDALSKYGAVTFSRSQKTTLVTIQSTGSFSQKFQVENSNRLLLQQVALPDIPGDYTISVSGEGCVYAQTMLRYNMHLEKQLSAFAIWVQTVPLTCNNPKGHNSFQISLEISYTGSRPASNMVIADVKMLSGFIPLKPTVKKLERLEHVSRTEVSNNNVLIYLDQVTNQTLAFSFIIQQDIPVRNLQPAIVKVYDYYETDEMAFAEYSSPCSTDKQNV
In the case of B2, the Kd (TGF-β2 [2]) is listed as roughly 1000 nM, the Kd (TGF-β1 [3]) is listed as roughly 1000 nM and the “125I-TGF-β2 binding, ligand blot” value (TGF-β2 [1]) is listed as “only trace levels”.

B3: FP4: GST-fusion protein with human α2M amino acids 798-1082 (protein)
chain: CIRVSVQLEASPAFLAVPVEKEQAPHCICANGRQTVSWAVTPKSLGNVNFTVSAEALESQELCGTEVPSVPEHGRKDTVIKPLLVEPEGLEKETTFNSLLCPSGGEVSEELSLKLPPNVVEESARASVSVLGDILGSAMQNTQNLLQMPYGCGEQNMVLFAPNIYVLDYLNETQQLTPEIKSKAIGYLNTGYQRQLNYKHYDGSYSTFGERYGRNQGNTWLTAFVLKTFAQARAYIFIDEAHITQALIWLSQRQKDNGCFRSSGSLLNNAIKGGVEDEVTLSAYI
modifications: free sulfhydryls blocked with iodoacetamide (IAM)
For B3, the [3H]thymidine incorporation (% control) (TGF-β1 [4]; FBHE cells, fusion protein (0.2 μM) + TGF-β1 (10 pM), 1 h pulse) was 31 ± 4%, the “Effect on TGF-β1 activity in FBHE proliferation assay” value (TGF-β1 [4]; fusion protein 200 nM, TGF-β1 10 pM) was “No change in TGF-β activity” and the “Nitrite production by RAW 264.7 cells” value (RAW 264.7 cells) was “did not increase nitrite production”. The “Inhibition of 125I-TGF-β2 binding to immobilized α2M-MA” value (TGF-β2 [5]) was “did not inhibit”, the “125I-TGF-β2 recovered (co-eluted) with the fusion protein” value (TGF-β2 [6]) was 6% and the “125I-TGF-β2 binding, ligand blot” value (TGF-β2 [1]) was “did not bind”. The [3H]thymidine incorporation (% control) (TGF-β2 [7]; FBHE cells, fusion protein (0.2 μM) + TGF-β2 (10 pM), 1 h pulse) was 38 ± 6% and the “Effect on TGF-β2 activity in FBHE proliferation assay” value (TGF-β2 [7]; fusion protein 200 nM, TGF-β2 10 pM) was “No change in TGF-β activity”.

B4: TGF-β2: transforming growth factor-β2 from Genzyme (protein, UniProt P61812 303-414, looked up)
Transforming growth factor …: ALDAAYCFRNVQDNCCLRPLYIDFKRDLGWKWIHEPKGYNANFCAGACPYLWSSDTQHSRVLSLYNTINPEASASPCCVSQDLEPLTILYYIGKTPKIEQLSNMIVKSCKCS
In the case of B4, the “Decrease of [3H]thymidine incorporation” value (FBHE cells) is reported as 57%.

B5: FP5: GST-fusion protein with human α2M amino acids 1053-1302 (protein)
chain: DNGCFRSSGSLLNNAIKGGVEDEVTLSAYITIALLEIPLTVTHPVVRNALFCLESAWKTAQEGDHGSHVYTKALLAYAFALAGNQDKRKEVLKSLNEEAVKKDNSVHWERPQKPKAPVGHFYEPQAPSAEVEMTSYVLLAYLTAQPAPTSEDLTSATNIVKWITKQQNAQGGFSSTQDTVVALHALSKYGAATFTRTGKAAQVTIQSSGTFSSKFQVDNNNRLLLQQVSLPELPGEYSMKVTGEGCVYLQ
modifications: free sulfhydryls blocked with iodoacetamide (IAM)
With B5 the “125I-TGF-β2 binding, ligand blot” value (TGF-β2 [1]) was “did not bind”.

B6: FP1: GST-fusion protein with human α2M amino acids 122-415 (protein)
chain: KFRVVSMDENFHPLNELIPLVYIQDPKGNRIAQWQSFQLEGGLKQFSFPLSSEPFQGSYKVVVQKKSGGRTEHPFTVEEFVLPKFEVQVTVPKIITILEEEMNVSVCGLYTYGKPVPGHVTVSICRKYSDASDCHGEDSQAFCEKFSGQLNSHGCFYQQVKTKVFQLKRKEYEMKLHTEAQIQEEGTVVELTGRQSSEITRTITKLSFVKVDSHFRQGIPFFGQVRLVDGKGVPIPNKVIFIRGNEANYYSNATTDEHGLVQFSINTTNVMGTSLTVRVNYKDRSPCYGYQWVS
modifications: free sulfhydryls blocked with iodoacetamide (IAM)
For B6, the “125I-TGF-β2 binding, ligand blot” value (TGF-β2 [1]) was “did not bind”.

— patent publication US6329500A, “Transforming growth factor-β binding site” (University of Virginia Patent Foundation, priority 1999, dated 2001)
